Measured values: patent US20130267584

Legend:
[1] = target: full-length TFPI (fl-TFPI, TFPI alpha) (Homo sapiens) (UniProt P10646); assay: SPR; conditions: biotinylated, nucleotide sequence identical to BAX 499; ka 6.7e7 1/Ms, kd 6.6e-4 1/s; 37 C, HBS pH 7.4, 0.1% P20, 3 mM CaCl2; aptamer immobilized
[2] = target: full-length TFPI (fl-TFPI, TFPI alpha) (Homo sapiens) (UniProt P10646); assay: inhibition; conditions: PEG

Chain of full-length TFPI (fl-TFPI, TFPI alpha) (Homo sapiens) (P10646 29-304): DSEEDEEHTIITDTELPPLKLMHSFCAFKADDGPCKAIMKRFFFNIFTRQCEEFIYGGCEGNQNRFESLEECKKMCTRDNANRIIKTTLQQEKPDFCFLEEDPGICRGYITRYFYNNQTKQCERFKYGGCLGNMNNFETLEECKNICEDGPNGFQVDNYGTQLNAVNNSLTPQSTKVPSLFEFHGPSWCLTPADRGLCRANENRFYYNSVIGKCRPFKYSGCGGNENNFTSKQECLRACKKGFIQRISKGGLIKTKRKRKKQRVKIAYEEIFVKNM

Substance	Kd [1]	Kd ([2]; apparent Kd from relief of TFPI inhibition of TF/FVIIa, 12 nM TFPI, FXa independent, TFPI source not stated in this example)	activity ([2]; aptamer giving about 50% recovery of extrinsic FXase activity with 3 nM TFPI, 75-80% recovery at saturation)	EC50 ([2]; extrinsic tenase assay at 0.25 nM TFPI, maximal reversal 58% at 1000 nM, EC50 rises with TFPI level)
ARC28635	0.015 nM	–	–	–
BAX 499	–	1.2 nM	50 nM	12 nM
